The results in this text go back to patent US20210380675A1 (Kyowa Kirin, published 2021).

The labels stand for the following.
B1: human IL-36γ, truncated (ligand)
chain: SMCKPITGTINDLNQQVWTLQGQNLVAVPRSDSVTPVTVAVITCKYPEALEQGRGDPIYLGIQNPEMCLYCEKVGEQPTLQLKEQKIMDLYGQPEPVKPFLFYRAKTGRTSTLESVAFPDWFIASSKRDQPIILTSELGKSYNTAFELNIND

In assay [1] the target is T1, IL-36 receptor (heterodimer of IL-36R and IL-1RAcP) on human cells (human, UniProt Q9HB29 20-575; Q9NPH3 21-570).
T1 sequence (looked up) 1: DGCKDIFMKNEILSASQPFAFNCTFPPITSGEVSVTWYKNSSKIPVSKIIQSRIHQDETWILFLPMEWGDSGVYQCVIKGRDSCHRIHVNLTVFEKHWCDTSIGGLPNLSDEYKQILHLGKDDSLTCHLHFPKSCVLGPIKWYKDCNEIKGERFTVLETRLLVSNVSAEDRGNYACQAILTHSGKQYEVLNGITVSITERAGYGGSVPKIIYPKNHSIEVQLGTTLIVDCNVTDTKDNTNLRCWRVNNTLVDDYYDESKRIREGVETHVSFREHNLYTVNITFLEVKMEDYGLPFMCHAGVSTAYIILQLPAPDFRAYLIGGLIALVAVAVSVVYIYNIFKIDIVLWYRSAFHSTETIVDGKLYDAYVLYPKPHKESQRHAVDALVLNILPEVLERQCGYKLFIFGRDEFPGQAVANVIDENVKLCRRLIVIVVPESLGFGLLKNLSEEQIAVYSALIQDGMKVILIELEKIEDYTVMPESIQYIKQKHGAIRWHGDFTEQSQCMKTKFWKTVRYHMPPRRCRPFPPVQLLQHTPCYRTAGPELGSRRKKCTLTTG
T1 sequence (looked up) 2: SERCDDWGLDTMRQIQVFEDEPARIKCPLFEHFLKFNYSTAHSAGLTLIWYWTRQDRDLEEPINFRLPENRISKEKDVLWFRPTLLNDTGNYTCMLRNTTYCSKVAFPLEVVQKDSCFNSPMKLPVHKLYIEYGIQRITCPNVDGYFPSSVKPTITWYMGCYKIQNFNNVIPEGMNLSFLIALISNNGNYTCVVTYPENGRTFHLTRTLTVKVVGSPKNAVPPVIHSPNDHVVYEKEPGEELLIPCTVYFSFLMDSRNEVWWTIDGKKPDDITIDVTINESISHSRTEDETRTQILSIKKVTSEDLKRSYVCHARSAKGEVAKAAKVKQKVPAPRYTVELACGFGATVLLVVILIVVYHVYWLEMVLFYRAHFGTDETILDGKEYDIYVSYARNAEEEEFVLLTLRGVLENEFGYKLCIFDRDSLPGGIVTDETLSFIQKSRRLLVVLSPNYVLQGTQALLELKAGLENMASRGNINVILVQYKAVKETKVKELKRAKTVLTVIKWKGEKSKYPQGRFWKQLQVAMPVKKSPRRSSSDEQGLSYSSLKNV
The assay can be described thus: cell-based or functional assay.

Assay [2] addresses B1. The assay can be described thus: cell-based or functional assay.
Assay [3] concerns the target T2, human IL-36α (R&D Systems cat#6995-IL-010/CF) (human, UniProt Q9UHA7 6-158).
T2 sequence (looked up): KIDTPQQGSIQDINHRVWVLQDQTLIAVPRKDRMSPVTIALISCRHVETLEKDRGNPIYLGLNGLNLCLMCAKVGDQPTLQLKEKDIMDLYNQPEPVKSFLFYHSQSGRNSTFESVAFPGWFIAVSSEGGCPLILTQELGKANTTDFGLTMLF
The assay can be described thus: cell-based or functional assay.

In assay [4] the target is T3, human IL-36α(R12), truncated (human, UniProt Q9UHA7 6-158).
T3 construct: Untagged after removal of the His-SUMO tag; also called hIL-36alpha
T3 chain: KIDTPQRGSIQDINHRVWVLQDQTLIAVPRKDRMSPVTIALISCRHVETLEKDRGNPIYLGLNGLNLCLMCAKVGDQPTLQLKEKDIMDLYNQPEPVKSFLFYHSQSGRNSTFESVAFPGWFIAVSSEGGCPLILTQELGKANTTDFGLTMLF
The assay can be described thus: SPR, Biacore, 1:1 Langmuir fit. As for the experimental part: (§1) The humanized antibodies obtained in Example 6 were tested for their binding to recombinant human or cynomolgus macaque IL36a and IL-36γ in Biacore assays. The association time was set to 60 seconds, and the final dissociation time was set to 600 seconds. Equilibrium dissociation constant KD (kd/ka) of exemplary antibodies was determined using a 1:1 Langmuir fit model (see Tables 17-18 below).
For orientation: Surface plasmon resonance follows binding to a sensor surface in real time, without labels.

Assay [5] addresses B1. The assay can be described thus: SPR, Biacore, 1:1 Langmuir fit. As for the experimental part: as §1
Assay [6] concerns the target T4, cynomolgus IL-36α, truncated (cynomolgus macaque (Macaca fascicularis), UniProt Q9UHA7 14-158 (human entry), limits assumed).
T4 construct: Untagged after removal of the His-SUMO tag; also called cynomolgus IL-36 alpha; cyIL-36alpha
T4 chain: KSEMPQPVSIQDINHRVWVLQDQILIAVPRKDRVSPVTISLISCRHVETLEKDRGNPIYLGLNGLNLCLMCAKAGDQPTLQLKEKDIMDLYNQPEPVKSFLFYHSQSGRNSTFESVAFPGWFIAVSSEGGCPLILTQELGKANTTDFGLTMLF
The assay can be described thus: SPR, Biacore, 1:1 Langmuir fit. How it is done:
as §1

Assay [7] concerns the target T5, cynomolgus IL-36γ, truncated (cynomolgus macaque (Macaca fascicularis), UniProt Q9NZH8 18-167 (human entry), limits assumed).
T5 construct: Untagged after removal of the His-SUMO tag; also called cynomolgus IL-36 gamma; cyIL-36gamma
T5 chain: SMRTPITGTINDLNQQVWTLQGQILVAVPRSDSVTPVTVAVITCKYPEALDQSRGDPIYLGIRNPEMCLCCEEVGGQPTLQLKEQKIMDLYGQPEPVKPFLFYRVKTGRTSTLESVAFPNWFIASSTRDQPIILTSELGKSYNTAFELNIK
The assay can be described thus: SPR, Biacore, 1:1 Langmuir fit. How it is done: as §1

The target of assay [8] is T3, human IL-36α(R12), truncated. The assay can be described thus: SPR, Biacore, 1:1 Langmuir fit; heads of c3 and c4 printed swapped. As for the experimental part:
as §1

For assay [9], the target named is B1. The assay is described as above. As for the experimental part: as §1
Assay [10] deals with T4, cynomolgus IL-36α, truncated. Described as above. As for the experimental part: as §1
For assay [11], the target named is T5, cynomolgus IL-36γ, truncated. The description is as above. As for the experimental part: as §1
Assay [12] deals with T3, human IL-36α(R12), truncated. The assay can be described thus: cell-based or functional assay.
Assay [13] has as its target T4, cynomolgus IL-36α, truncated. The assay can be described thus: cell-based or functional assay.
Assay [14] has as its target B1. The assay can be described thus: cell-based or functional assay. The source holds these as a separate data set.
The target in assay [15] is T5, cynomolgus IL-36γ, truncated. The assay can be described thus: cell-based or functional assay.
In assay [16] the target is T3, human IL-36α(R12), truncated. The assay can be described thus: cell-based or functional assay.
Assay [17] has as its target B1. The assay can be described thus: cell-based or functional assay. The source holds these as a separate data set.
Assay [18] deals with B1. The assay can be described thus: cell-based or functional assay. The source holds these as a separate data set.
In assay [19] the target is B1. The assay can be described thus: cell-based or functional assay. The source holds these as a separate data set.
The target of assay [20] is T3, human IL-36α(R12), truncated. The assay can be described thus: SPR, Biacore T200, antibody on chip, IL-36 as analyte, 1:1 Langmuir fit. Put shortly: (§2)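 Single-cycle kinetics: mouse/human chimeric or mouse antibodies captured (~200 RU) via anti-human or anti-mouse Fc on CM5, then increasing IL-36 concentrations injected, 300 s association, 1200 s dissociation. Alternatively ~2000 RU antibody amine-coupled, analyte 30 μL/min for 420 s, 3600 s dissociation, 25° C; double-referenced sensorgrams.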

Assay [21] has as its target B1. Described as above. The method, boiled down:
as §2

As for B1, the EC50 (read off the curve) – broadly, the concentration at which the effect is half-maximal – in assay [1] was approximately 1 nM.

B2: 144D464A LV9are HV10b (antibody, V domains shown)
VH: QVQLVQSGAEVKKPGASVKVSCKASGFNIKDTYIHWVRQAPGQGLEWIGRIDPAIGTTRYDPKFQGRATITTDTSTSTVYLEFSSLRSEDTAVYYCARLHYFGNNFFFDYWGQGTLVTVSS
VL: QAVVTQEPSLTVSPGGTVTLTCRSSSGAVTTSNYANWVQEKPGQLFAGLIGGTNDRAPGVPARFSGSLLGGKAALTLSGAQPEDEADYFCALWFSNHWVFGGGTKLTVL
notes: Humanized
Take B2: the “IC50 of IL-8 secretion (AlphaLISA), HaCaT, 10 nM human IL-36γ” value with human IL-36γ, truncated [2] came to 12.5 nM. In assay [3], the “IC50 of IL-8 secretion (AlphaLISA), HaCaT, 10 nM human IL-36α” value was found to be 4.51 nM. In addition, the Kd (usually the concentration at which binding is half-saturated) in assay [4] was 2.1 nM; in the assay with human IL-36γ, truncated [5], 1.3 nM; in assay [6], 1.19 nM; in assay [7], 1.13 nM. For the same molecule, the koff (as a rule, the first-order rate constant of dissociation) was determined as 0.000445 s⁻¹ in [8]; 0.000436 s⁻¹ with human IL-36γ, truncated [9]; 0.000422 s⁻¹ in assay [10]; 0.000493 s⁻¹ in [11]. In addition, the association rate constant (kon) (commonly the rate constant with which the complex forms) amounted to 212000 M⁻¹ s⁻¹ in assay [8]; 336000 M⁻¹ s⁻¹ in the assay with human IL-36γ, truncated [9]; 354000 M⁻¹ s⁻¹ in [10]; 434000 M⁻¹ s⁻¹ in assay [11].

B3: 144D464A LV7a HV10b (antibody, V domains shown)
VH: QVQLVQSGAEVKKPGASVKVSCKASGFNIKDTYIHWVRQAPGQGLEWIGRIDPAIGTTRYDPKFQGRATITTDTSTSTVYLEFSSLRSEDTAVYYCARLHYFGNNFFFDYWGQGTLVTVSS
VL: QAVVTQEPSLTVSPGGTVTLTCRSSSGAVTTSNYANWVQQKPGQAFAGLIGGTNDRAPGVPARFSGSLLGGKAALTISGAQPEDEADYFCALWFSNHWVFGGGTKLTVL
notes: Humanized; also called humanized 144D464A antibody LV7a HV10b
In the case of B3, the “IC50 of IL-8 secretion (AlphaLISA), HaCaT, 10 nM human IL-36γ” value with human IL-36γ, truncated [2] was found to be 7.83 nM. Moreover, in [3], the “IC50 of IL-8 secretion (AlphaLISA), HaCaT, 10 nM human IL-36α” value is 3.9 nM. For the same molecule, the Kd in assay [4] was found to be 2.09 nM; with human IL-36γ, truncated [5] it was 1.31 nM; in assay [6], 1.25 nM; in assay [7], 1.18 nM. The koff turned out to be 0.000456 s⁻¹ in assay [8]; 0.000451 s⁻¹ with human IL-36γ, truncated [9]; 0.000451 s⁻¹ in assay [10]; 0.000523 s⁻¹ in assay [11]. In addition, the kon in [8] turned out to be 219000 M⁻¹ s⁻¹; with human IL-36γ, truncated [9], 343000 M⁻¹ s⁻¹; in assay [10], 362000 M⁻¹ s⁻¹; in assay [11], 443000 M⁻¹ s⁻¹.

B4: 144D464A (antibody, V domains shown)
VH: EVQLQQSGAELVKPGASVRLSCTASGFNIKDTYIHWVKQRPEQGLEWIGRIDPAIGTTRYDPKFQGKATITTDTSSDTVHLQFSSLTSEDTAVYYCARLHYFGNNFFFDYWGQGTTLTVSS
VL: QAVVTQESALTTSPGEAVTLTCRSSSGAVTTSNYANWVQEKPDHLFAGLIGGTNDRAPGVPARFSGSLIGDKAALTITGAQTEDEAIYFCALWFSNHWVFGGGTKLTVL
notes: Mouse monoclonal from hybridoma; mouse IgG heavy and lambda light chain; also called mouse antibody 144D464A
Take B4: the “IC50 of IL-8 secretion, HaCaT, 10 nM human IL-36α, FIG. 1B” value in [12] was 6.49 nM. For the same molecule, the “IC50 of IL-8 secretion, HaCaT, 10 nM cynomolgus IL-36α, FIG. 2A” value in [13] stood at 5.3 nM. Besides, the “IC50 of IL-8 secretion, HaCaT, 10 nM human IL-36γ, FIG. 1E” value in the assay with human IL-36γ, truncated [14] stood at 7.39 nM. The “IC50 of IL-8 secretion, HaCaT, 10 nM cynomolgus IL-36γ, FIG. 2C” value in [15] amounted to 15.6 nM. Besides, the “IC50 of IL-8 secretion, primary human keratinocytes, 8 nM human IL-36α, FIG. 4B” value in [16] came to 13.4 nM. For the same molecule, the “IC50 of IL-8 secretion, primary human keratinocytes, 8.4 nM human IL-36γ, FIG. 4D” value with human IL-36γ, truncated [17] is 13.3 nM. In the assay with human IL-36γ, truncated [18], the “IC50 of IL-8 secretion, primary human monocytes, 6 nM human IL-36γ, FIG. 5C” value worked out at 13.2 nM. The Kd was 1.32 nM in [4]; 0.877 nM in the assay with human IL-36γ, truncated [5]; 0.727 nM in assay [6]; 0.865 nM in assay [7]; 2.53 nM in assay [20]; 3.81 nM in the assay with human IL-36γ, truncated [21]. Besides, the “IC50 (read off the curve)” value in the assay with human IL-36γ, truncated [19] was approximately 8 nM. The koff was 0.000362 s⁻¹ in assay [8]; 0.00034 s⁻¹ in the assay with human IL-36γ, truncated [9]; 0.000338 s⁻¹ in assay [10]; 0.000427 s⁻¹ in assay [11]; 0.000309 s⁻¹ in assay [20]; 0.00032 s⁻¹ in the assay with human IL-36γ, truncated [21]. For the same molecule, the kon in [8] is 274000 M⁻¹ s⁻¹; in the assay with human IL-36γ, truncated [9], 388000 M⁻¹ s⁻¹; in [10] it was 465000 M⁻¹ s⁻¹; in [11], 493000 M⁻¹ s⁻¹; in [20], 122000 M⁻¹ s⁻¹; with human IL-36γ, truncated [21], 84000 M⁻¹ s⁻¹.
